The RNAGym collection of RNA variant scans (doi:10.1073/pnas.2313332121)

B1: TPR t1 (parent)
chain: GACCAAUCUGCCCUCAGAGCUCGAGAACAUCUUCGGAUGCAGAGGAGGCAGGCUUCGGUGGCGCGAUAGCGCCAACGUCCUCAACCUCCAAUGCAUCCCACCACAUGAUGAUGCCUGAAGAGCCUUGGUUUUUUG

Variants of: B1
Experiment: polymerase ribozyme fitness, log enrichment relative to wild type (log ratio); higher = more active; in vitro selection for triplet polymerase activity
Summary of the method: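 Input and output libraries were sequenced on Illumina after a single in vitro selection round, run in triplicate on PCR-built, transcribed mutant libraries of each subunit of a heterodimeric triplet polymerase ribozyme. Selection annealed libraries to a biotinylated primer, the partner subunit and triplets, incubated them frozen at −7 °C, then gel-excised extended constructs for streptavidin-bead capture and RT-PCR. Genotypes with ≥10 input reads and ≥1 read per output were kept. Fitness is the logarithm, taken in base 2, of genotype enrichment divided by wild-type enrichment, using inverse-variance-weighted replicate averages.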

In order of rising “polymerase ribozyme fitness (log ratio)” value:
1. GACCAAUCUGCCCUCAGAGCUCGAGAACAUCUUCGGAUGCAGAGGAGGCAGGCUUCGGUGGCACGAUAGCGCCAACGUGCUCAACCUCCAAUGCAUCCCACCACAUGAGGAUGCCUGAAGAGCCUUGGUUUUUUG [G63A C79G U109G]  -7.2
2. GACCAAUCUGCCCUCAGAGCUCGAGAACAUCUUCGGAUGCAGAGGAGGCAGGCUUCGGUGGCAAGAUAGCGCCAACGUCCGCAACCUCCAAUGCAUCCCACCACAUGAUGAUGCGUGAAGAGCCUUGGUUUUUUG [G63A C64A U81G C115G]  -6.59
3. GACCAAUCUGCCCUCAGAGCUCGAGAACAUCUUCGGAUGCAGAGGAGGCAGGCUUCGGUGGCACGAUAGCGCCAACGUCCUCAACCUCCAAUGCAUCCCACCACAUGAUGUUGCCUGAAGAACCUUGGUUUUUUG [G63A A111U G122A]  -6.48
4. GACCAAUCUGCCCUCAGAGCUCGAGAACAUCUUCGGAUGCAGAGGAGGCAGGCUUCGGUGGCACGAUACCGCCAACGUCCUCAACCUCCAAUGCAUCCCACCACAUGAUGAUGCCUGAAGAGCCUUGGUUUUUUG [G63A G69C]  -6.1
5. GACCAAUCUGCCCUCAGAGCUCGAGAACAUCUUCGGAUGCAGAGGAGGCAGGCUUCGGUGGCACGAUAGCGCCAACGUCCUCAACCUCCAAUGCAUCCAACCACAUGAUGAUGCCUGAAGCGCCUUGGUUUUUUG [G63A C99A A121C]  -5.41
6. GACCAAUCUGCCCUCAGAGCUCGAGAACAUCUUCGGAUGCAGAGGAGGCAGGCUUCGGUGGCACGAUAGCGCCAACGUCCUCAACCUCCAAUGCAUCGCACCACAUGAUGAUGCCUCAAGAGCCUUGAUUUUCUG [G63A C98G G117C G128A U133C]  -5.29
7. GACCAAUCUGCCCUCAGAGCUCGAGAACAUCUUCGGAUGCAGAGGAGGCAGGCUUCGGUGGCACGAUAGCGCCAACGUCCUUAAUCUCCUAUGCAUCUCACCACAUGAUGAUGCCUGUAGAGCCUUGGUUUUUUG [G63A C82U C85U A90U C98U A118U]  -5.21
8. GACCAAUCUGCCCUCAGAGCUCGAGAACAUCUUCGGAUGCAGAGGAGGCAGGCUUCGGUGGCACGAUAGCGCCAACGUCCUCAACCUCCAAUGCAUCCCACCAUAUGAUGAUGGCUGAAGAGCCUUGGUUUUUUG [G63A C104U C114G]  -4.92
9. GACCAAUCUGCCCUCAGAGCUCGAGAACAUCUUCGGAUGCAGAGGAGGCAGGCUUCGGUGGCACGAUAGCGCCAACUUCCUCAACCUCCAAUGCAUCCCACCACGUGAUGAUGCCUGAAGAGCCUUGGUUUUUUG [G63A G77U A105G]  -4.78
10. GACCAAUCUGCCCUCAGAGCUCGAGAACAUCUUCGGAUGCAGAGGAGGCAGGCUUCGGUGGCACGAUAGCGCCAACGUCCUCAACCUCCACUGCAUCCCACCACAUGAUGAUGCCUGAAGAGCCUUGGUUUUUUG [G63A A91C]  -4.17
11. GACCAAUCUGCCCUCAGAGCUCGAGAACAUCUUCGGAUGCAGAGGAGGCAGGCUUCGGUGGCACGAUAGCGCCAACGUCCUCAACCUUCAAUGCAUUCCACCACAUGAUGAUCCCUGAAGAGCCUUGGUUUUUUG [G63A C88U C97U G113C]  -4.04
12. GACCAAUCUGCCCUCAGAGCUCGAGAACAUCUUCGGAUGCAGAGGAGGCAGGCUUCGGUGGCACGAUAGCCCCAACGUCCUCAACCUCCAAUGCAUCCCACCACAUGAUGAUGCCUGAAGAGCCUUGGUUUUUUG [G63A G71C]  -3.85
13. GACCAAUCUGCCCUCAGAGCUCGAGAACAUCUUCGGAUGCAGAGGAGGCAGGCUUCGGUGGCACGAUAGCGCCAACGUCCUCAACCUCCAAUGCAUCCCACCACUUGAUGAAGCCUGAAGAGCCUUGGUUUUUUG [G63A A105U U112A]  -3.65
14. GACCAAUCUGCCCUCAGAGCUCGAGAACAUCUUCGGAUGCAGAGGAGGCAGGCUUCGGUGGCACGAUAGCGCCAACGUUCUCAACCUCCAUUGCAUCCCACCACAUGAUGAUGCCUGAAGAGCCUUGGUUUUUUG [G63A C79U A91U]  -3.61
15. GACCAAUCUGCCCUCAGAGCUCGAGAACAUCUUCGGAUGCAGAGGAGGCAGGCUUCGGUGGCACGAUAGCGCCAACGUCCUCAACCUCCAAUGCAUCCCACCACUUGAUGAUGCCUGAAGAGCCUUGGUUUUUUG [G63A A105U]  -3.59
16. GACCAAUCUGCCCUCAGAGCUCGAGAACAUCUUCGGAUGCAGAGGAGGCAGGCUUCGGUGGCACGAUAGCGCCAACGUCCUCAACCUCAAAUGCAUCCCACCACAUGAUGAUGCCUGAAGAGCCUUGGUUGUUUG [G63A C89A U131G]  -3.23
17. GACCAAUCUGCCCUCAGAGCUCGAGAACAUCUUCGGAUGCAGAGGAGGCAGGCUUCGGUGGCACGAUAGCGCCAACGUCCUCAACCUCAAAUGCAUCCCACCACAUGAUGAUGCCUGAAGAGCCUUGGUUUUUUG [G63A C89A]  -3.19
18. GACCAAUCUGCCCUCAGAGCUCGAGAACAUCUUCGGAUGCAGAGGAGGCAGGCUUCGGUGGCACGAUAGCGCCAACGUCCUCAACCUUCAAUGCAUCCCACCACAUGAUGAUGCCUGCAGAGCCUUGGUUUUUUG [G63A C88U A118C]  -3.02
19. GACCAAUCUGCCCUCAGAGCUCGAGAACAUCUUCGGAUGCAGAGGAGGCAGGCUUCGGUGGCACGAUAGCGCCAACGUCCUUAACCUCCAAUGUCUCCCACCACAUGAUGAUGCUUGAAGAGCCUUGGUUUCUUG [G63A C82U C94U A95C C115U U132C]  -2.7
20. GACCAAUCUGCCCUCAGAGCUCGAGAACAUCUUCGGAUGCAGAGGAGGCAGGCUUCGGUGGCACGAUAGCGCCAACGUCCUCAACCUCCAAUGCAUCCCACCAAAUGAUGAUGCCUGAAGAGCCUUGGUUUUUUG [G63A C104A]  -2.41
21. GACCAAUCUGCCCUCAGAGCUCGAGAACAUCUUCGGAUGCAGAGGAGGCAGGCUUCGGUGGCACGAUAGCGCCAACGUCCUUAACCUCCAAUGCAUCCCACCACAUGAUGAUGCCUGAAGAGCCUGGGUUUUUUG [G63A C82U U126G]  -2.36
22. GACCAAUCUGCCCUCAGAGCUCGAGAACAUCUUCGGAUGCAGAGGAGGCAGGCUUCGGUGGCACGAUAGCGCCAACGUCCUCAACAUCCAAUGCAUCCCACCACAUGAUGAUGCCUGAAGAGCCUUGGUUUUUUG [G63A C86A]  -2.33
23. GACCAAUCUGCCCUCAGAGCUCGAGAACAUCUUCGGAUGCAGAGGAGGCAGGCUUCGGUGGCACGAUAGCGCCAACGUCCUCAACCUCCAGUGCAUCCCACCACAUGAUGAUGCCUGAAGAGCCUUGGUUUUUUG [G63A A91G]  -2.33
24. GACCAAUCUGCCCUCAGAGCUCGAGAACAUCUUCGGAUGCAGAGGAGGCAGGCUUCGGUGGCACGAUAGCGCCAACGUCCUCAACCUCCAAUGCCUCCCACCACAUGAUGAUGCCUGAAGAGCCUUGGUUUUUUG [G63A A95C]  -2.22
25. GACCAAUCUGCCCUCAGAGCUCGAGAACAUCUUCGGAUGCAGAGGAGGCAGGCUUCGGUGGCACGAUAGCGCAAACGUCCUCAACCUCCAAUGCAUCCCACCACAUGAUGAUGCCUGAAGAGCCUUGGUUUUUUG [G63A C73A]  -1.93
26. GACCAAUCUGCCCUCAGAGCUCGAGAACAUCUUCGGAUGCAGAGGAGGCAGGCUUCGGUGGCACGAUAGCGCCAACGUCCUCAACCUCCAAUGCAUCCCUCCACAUGAUGAUGCCUGAAGAGCCUUGGUUUUUUG [G63A A100U]  -1.77
27. GACCAAUCUGCCCUCAGAGCUCGAGAACAUCUUCGGAUGCAGAGGAGGCAGGCUUCGGUGGCACGAUAGCGCCAACGUCUUCAACCUCCAAUGCAUCCCACCACAUGAUGAUGCCUGAAGAGCCUUGGUUUUUUG [G63A C80U]  -1.54
28. GACCAAUCUGCCCUCAGAGCUCGAGAACAUCUUCGGAUGCAGAGGAGGCAGGCUUCGGUGGCACGAUAGCGCCAACGUCCUUAACCUCCAAUGCAUCCCACCACAUGAUGAUGCCUGAAGAGCCUUGGUUUUUUG [G63A C82U]  -1.51
29. GACCAAUCUGCCCUCAGAGCUCGAGAACAUCUUCGGAUGCAGAGGAGGCAGGCUUCGGUGGCACGAUAGCGCCAACGUCCUCAACCUACAAUGCAUCCCACCACAUGAUGAUGCCUGAAGAGCCUUGGUUUUUUG [G63A C88A]  -1.42
30. GACCAAUCUGCCCUCAGAGCUCGAGAACAUCUUCGGAUGCAGAGGAGGCAGGCUUCGGUGGCACGAUAGCGUCAACGUCCUCAACCUCCAAUGCAUCCCAUCACAUGAUGAUGCCUGAAGAGCCUUGGUUUUUUG [G63A C72U C101U]  -1.24
31. GACCAAUCUGCCCUCAGAGCUCGAGAACAUCUUCGGAUGCAGAGGAGGCAGGCUUCGGUGGCACGAUAGCGCCAACGUCCUCAACCUCCAAUGCAUCCCACCACAUGAUGAUGCAUGAAGAGCCUUGGUUUUUUG [G63A C115A]  -1.19
32. GACCAAUCUGCCCUCAGAGCUCGAGAACAUCUUCGGAUGCAGAGGAGGCAGGCUUCGGUGGCACGAUAGCGCCAACGUCCUCAACCUUCAAUGCAUCCCACCACAUGAUGAUGCCUGAAAAUCCUUGGUUUUUUG [G63A C88U G120A G122U]  -0.851
33. GACCAAUCUGCCCUCAGAGCUCGAGAACAUCUUCGGAUGCAGAGGAGGCAGGCUUCGGUGGCACGAUAGCGCCAACGUUCUCAACCUCCAAUGCUUCCCAUCACAUGAUGAUGCCUGAAGAGCCUUGGUUUUUUG [G63A C79U A95U C101U]  -0.75
34. GACCAAUCUGCCCUCAGAGCUCGAGAACAUCUUCGGAUGCAGAGGAGGCAGGCUUCGGUGGCACGAUAGCGCCAACGUCCUCAACCUCCAAUGCAUCCCACCACAUGAUGGUGCCUGAAGAGCCUUGGUUUUUUG [G63A A111G]  -0.659
35. GACCAAUCUGCCCUCAGAGCUCGAGAACAUCUUCGGAUGCAGAGGAGGCAGGCUUCGGUGGCACGAUAGCGCCAACGUCCUCAACCUCCAAUGCUUCCCACCACAUGAUGAUGCCUGAAGAGCCUUGGUUUUUUG [G63A A95U]  -0.563
36. GACCAAUCUGCCCUCAGAGCUCGAGAACAUCUUCGGAUGCAGAGGAGGCAGGCUUCGGUGGCACGAUAGCGCCAACGUCCUCAACCUCCAAUGCAUCCCACCAUAUGAUGAUGCCUGAAAAGCCUUAGUUUUUUG [G63A C104U G120A G127A]  -0.508
37. GACCAAUCUGCCCUCAGAGCUCGAGAACAUCUUCGGAUGCAGAGGAGGCAGGCUUCGGUGGCACGAUAGCGCCAACGUCCUCAACUUCCAAUGCAUCCCACCACAUGAUGAUGCCUGAAGAGCCUUGGUUUUUUG [G63A C86U]  -0.411
38. GACCAAUCUGCCCUCAGAGCUCGAGAACAUCUUCGGAUGCAGAGGAGGCAGGCUUCGGUGGCACGAUAGCGCCAACGUCCUCAACCUCCAAUGCAUCCCACCACAUGAUGAUGCCUGAAGAGACUUGGUUUUUUG [G63A C123A]  -0.259
39. GACCAAUCUGCCCUCAGAGCUCGAGAACAUCUUCGGAUGCAGAGGAGGCAGGCUUCGGUGGCACGAUAGCGCCAACGUCCUCAACCUCCAAUGCAUCCCAUCACAUGAUGAUGCCUGAAGAGCCUUGGUUUUUUG [G63A C101U]  -0.216
40. GACCAAUCUGCCCUCAGAGCUCGAGAACAUCUUCGGAUGCAGAGGAGGCAGGCUUCGGUGGCACGAUAGCGCCAACGUCCUCAACCUCCAAUGCAUCCCACCACAUGAUGAUGCCUGAGGAGCCUUGGUUUUUUG [G63A A119G]  -0.0262
41. GACCAAUCUGCCCUCAGAGCUCGAGAACAUCUUCGGAUGCAGAGGAGGCAGGCUUCGGUGGCACGAUAGCGCCAACGUCCUCAACCUCCAAUGCAUCCCACCACAUGAUGAUGCCUGUAGAGCCUUGGUUUUUUG [G63A A118U]  0.468
42. GACCAAUCUGCCCUCAGAGCUCGAGAACAUCUUCGGAUGCAGAGGAGGCAGGCUUCGGUGGCACGAUAGCGCCAACGUCCUCAACCUCCAAUGCAUCCCACCACAUGAUGAUGCCUGAAGAGCUUUGGUUUUUUG [G63A C124U]  0.738
